The results in this text go back to US20230242654A1, “REAGENTS FOR EXPANDING CELLS EXPRESSING RECOMBINANT RECEPTORS” (Juno Therapeutics, Inc., priority 2017, published 2023).

For this assay, the system named is anti-BCMA CARs. The experiment in a line: BCMA-Fc fusion protein binding to CAR T cells by flow cytometry. To be noted: versus T cells expressing CARs that do not bind BCMA. Here is the method: The clone encoding the recombinant human BCMA-Fc fusion construct with the N-terminal CD33 leader sequence (SEQ ID NO: 30) was inserted into an expression vector and expressed in HEK 293 cells. Supernatant from the transiently transfected HEK cells was harvested after 5 days and the BCMA-FC fusion protein was purified by protein A affinity chromatography and size exclusion chromatography (SEC). The resulting BCMA-Fc fusion protein was determined to have a purity of greater than 95% as assessed by gel permeation chromatography.
(In flow cytometry, cells or beads pass a laser one at a time.)

B1: BCMA-Fc fusion protein: extracellular domain of human BCMA and a human IgG1 Fc connected with a linker (SEQ ID NO: 35) (protein)
chain: MLQMAGQCSQNEYFDSLLHACIPCQLRCSSNTPPLTCQRYCNASVTNSVKGTNAGGGGSPKSSDKTHTCPPCPAPEAEGAPSVFLFPPKPKDTLMISRTPEVTCVVVDVSHEDPEVKFNWYVDGVEVHNAKTKPREEQYNSTYRVVSVLTVLHQDWLNGKEYKCKVSNKALPSSIEKTISKAKGQPREPQVYTLPPSRDELTKNQVSLTCLVKGFYPSDIAVEWESNGQPENNYKTTPPVLDSDGSFFLYSKLTVDKSRWQQGNVFSCSVMHEALHNHYTQKSLSLSPGK
modifications: BCMA-Fc fusion polypeptide
Consider B1, for which the “binding of BCMA-Fc to CAR expressing T cells” value is “specifically bound to anti-BCMA CAR expressing T cells”.
